Here are results for 14 molecules from patent publication US20210395354A1 (AMPSOURCE BIOPHARMA SHANGHAI, published 2021).

The target in assay [1] is T1, human nerve growth factor (hNGF) (human, UniProt P01138 122-241). Description: cell-based or functional assay.
Assay [2] deals with T2, human NGF (his tag) (human, UniProt P01138 122-241, limits assumed).
T2 construct: Captured on Ni-NTA sensors in the ForteBio Octet assay; also called hNGF; antigen; not shown: his tag
Description: BLI (ForteBio Octet), human NGF (his tag) on Ni-NTA sensor. Here is the method: (§1) The binding affinity constants of purified mouse monoclonal antibody #56 and #2 with antigens were determined by the bio film interference technique (fortebio octet Red & QK system, Pall company). […] After the kinetic fitting curve of affinity analysis, the affinity constant was calculated by analyzing the above data.
In general terms: BLI is a label-free optical method that tracks binding on a fibre tip over time.

Assay [3] deals with T2, human NGF (his tag). Description: BLI (ForteBio Octet), method of example 4. Here is the method:
as §1

The target of assay [4] is T1, human nerve growth factor (hNGF). Description: indirect ELISA on coated hNGF (0.2 µg/ml), detection with HRP anti-mouse IgG, OD 450 nm. How it is done: Indirect ELISA was used to determine the binding titers of purified mouse antibody #2, #56 and #98 to hNGF. Among them, each pore was coated with 100 μl 0.2 μg/ml hNGF (Corning company) and placed at 4° C. for 16-20 h. The PBS buffer in 96 well plate was sucked off, washed with PBST (pH 7.4, PBS containing 0.05% Tween 20) buffer once, then 200 μL/well PBST/1% skimmed milk powder was added, incubated at room temperature for 1 h and sealed. Remove the blocking solution, wash the plate with PBST buffer for 3 times, add PBST/1% skimmed milk powder to dilute to the appropriate concentration of anti-hngf mouse antibody to be tested, 100 μL/well, incubate at room temperature for 1.5 h. Remove the reaction system, wash the plate with PBST three times, and then use the HRP labeled Sheep anti mouse IgG polyclonal antibody (Jackson Laboratory) diluted with PBST/1% skimmed milk powder (dilution ratio 1:5000) at 50 μL/well as the detection antibody, and incubate at room temperature for 1 h. After 3 times of PBST washing, add 100 μL/well TMB and incubate at room temperature for 10-30 min. Add 50 μL/pore 0.2 M sulfuric acid to stop the reaction.
Background: ELISA stands for enzyme-linked immunosorbent assay.

T2 sequence (P01138 122-241 limits assumed): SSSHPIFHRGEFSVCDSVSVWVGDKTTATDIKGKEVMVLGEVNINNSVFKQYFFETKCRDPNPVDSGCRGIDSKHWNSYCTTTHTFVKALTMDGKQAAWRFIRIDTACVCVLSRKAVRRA
T1 sequence (P01138 122-241 limits assumed): as above

B1: mouse monoclonal antibody #56 (antibody, mouse IgG1, V domains shown)
VH: QVQLKESGPGLVAPSQSLSITCTVSGFSLTGYGVNWVRQPPGKGLEWLGMIWADGDTDYNSALKSRLSISKDNSKSQVFLKVNNLQTDDTARYYCARDSYYYGYNFFDVWGAGTTVTVSS
VL: DIQMTQTTSSLSASLGDRVTISCRASQDISNYLNWYQQKPEGTLKLLIYYTSRLHSGVPSRFSGSGSGTDYSLTISSLEQEDIATYFCQQGNTLPRTFGGGTKLEIK
notes: also called Chen 56; antibody secreted by hybridoma A56
In the case of B1, the “IC50 (read off the curve), NGF-dependent TF-1 cell proliferation” value (shortened to “IC50 (read off the curve)”) in assay [1] is ~0.4 µg/mL. In addition, in the assay with human NGF (his tag) [2], the Kd was 0.0123 nM, the koff is 8.89e-06 s⁻¹ and the kon was determined as 723000 M⁻¹ s⁻¹.

B2: human mouse chimeric antibody AB5C1 (antibody, V domains shown)
VH: QVQLKESGPGLVAPSQSLSITCTVSGFSLTGYGVNWVRQPPGKGLEWLGMIWADGDTDYNSALKSRLSISKDNSKSQVFLKVNNLQTDDTARYYCARDSYYYGYNFFDVWGAGTTVTVSS
VL: DIQMTQTTSSLSASLGDRVTISCRASQDISNYLNWYQQKPEGTLKLLIYYTSRLHSGVPSRFSGSGSGTDYSLTISSLEQEDIATYFCQQGNTLPRTFGGGTKLEIK
Consider B2, for which the “IC50 (read off the curve)” value in assay [1] is ~0.9 µg/mL. Further, in the assay with human NGF (his tag) [3], the Kd is 0.0299 nM, the koff was 5.4e-05 s⁻¹ and the kon was 1.81e+06 M⁻¹ s⁻¹.

B3: humanized antibody AB5C6 (antibody, V domains shown)
VH: QVQLKESGPGLVAPSETLSITCTVSGFSLTGYGVNWVRQPPGKGLEWLGMIWADGDTDYNSALKSRLTISKDNSKSQVFLKVNNLQTDDTARYYCARDSYYYGYNFFDVWGAGTTVTVSS
VL: DIQMTQSPSSLSASVGDRVTISCRASQDISNYLNWYQQKPEGTLKLLIYYTSRLHSGVPSRFSGSGSGTDYSLTISSLQQEDIATYFCQQGNTLPRTFGGGTKLEIK
notes: Humanized from #56 by surface remodeling
On to B3, for which the “IC50 (read off the curve)” value in assay [1] is ~0.4 µg/mL. Besides, in the assay with human NGF (his tag) [3], the affinity, expressed as Kd, was 0.0102 nM; the koff worked out at 1.61e-05 s⁻¹; the kon amounted to 1.59e+06 M⁻¹ s⁻¹.

B4: humanized antibody AB5D2 (antibody, V domains shown)
VH: QVQLVQSGAEVKKPGASVKVSCKASGYTFTDYWMQWVKQRPGQGLEWIGTIYPGDGYTRYIQKFKGRVTMTRDTSTSTVYMELSSLRSEDSAVYYCARRAAYYTMDYWGQGTLVTVSS
VL: DIQMTQSPSSLSASVGDRVTITCKASQDVNTAVAWYQQKPGKAPKLLIYWASTRHTGVPDRFTGSGSGTDYTLTISSLQPEDLALYYCQQHYSSPWTFGGGTKVEIT
notes: Humanized from #2 by CDR transplantation
Turning to B4, in the assay with human NGF (his tag) [3], the Kd was found to be 0.00633 nM, the koff was 7.94e-06 s⁻¹ and the kon was determined as 1.25e+06 M⁻¹ s⁻¹.

B5: humanized antibody AB5D4 (antibody, V domains shown)
VH: QVQLVQSGAEVKKPGASVKVSCKASGYTFTDYWMHWVKQAPGQGLEWMGIIYPGDGYTSYAQKFQGRVTMTRDTSTSTVYMELSSLRSEDTAVYYCARRAAYYTMDYWGQGTLVTVSS
VL: DIQMTQSPSSLSASVGDRVTITCRASQDVNTALAWYQQKPGKAPKLLLYWASRLETGVPSRFSGSGSGTDYTLTISSLQPEDFATYYCQQHYSSPWTFGGGTKVEIT
notes: as for B4
In the assay with human NGF (his tag) [3], B5 showed a Kd of 0.0182 nM, a koff of 3.25e-05 s⁻¹ and a kon of 1.78e+06 M⁻¹ s⁻¹.

B6: humanized antibody AB5D3 (antibody, V domains shown)
VH: QVQLVQSGAEVKKPGASVKVSCKASGYTFTDYWMHWVRQAPGQGLEWMGIIYPGDGYTSYAQKFQGRVTMTRDTSTSTVYMELSSLRSEDTAVYYCARRAAYYTMDYWGQGTLVTVSS
VL: DIQMTQSPSSLSASVGDRVTITCRASQDVNTALAWYQQKPGKAPKLLLYWASRLESGVPSRFSGSGSGTDYTLTISSLQPEDFATYYCQQHYSSPWTFGGGTKVEIT
notes: as for B4
As for B6, in the assay with human NGF (his tag) [3], the Kd stood at 0.0129 nM, the koff was 1.92e-05 s⁻¹ and the on-rate constant (kon) amounted to 1.49e+06 M⁻¹ s⁻¹.

B7: humanized antibody AB5D5 (antibody, V domains shown)
VH: QVQLVQSGAEVKKPGASVKVSCKASGYTFTDYWMHWVKQAPGQGLEWMGIIYPGDGYTSYIQKFQGRVTMTRDTSTSTVYMELSSLRSEDTAVYYCARRAAYYTMDYWGQGTLVTVSS
VL: DIQMTQSPSSLSASVGDRVTITCRASQDVNTALAWYQQKPGKAPKLLLYWASRLETGVPSRFSGSGSGTDYTLTISSLQPEDLATYYCQQHYSSPWTFGGGTKVEIT
notes: as for B4
Regarding B7, in the assay with human NGF (his tag) [3], the Kd is 0.0154 nM, the koff was found to be 1.89e-05 s⁻¹ and the kon amounted to 1.23e+06 M⁻¹ s⁻¹.

B8: humanized antibody AB5C2 (antibody, V domains shown)
VH: QVQLQESGPGLVKPSETLSLTCTVSGFSLTGYGVNWVRQPPGKGLEWLGMIWADGDTDYNSALKSRVTISKDTSKNQFSLKLSSVTAADTARYYCARDSYYYGYNFFDVWGAGTTVTVSS
VL: DIQMTQSPSSLSASVGDRVTITCRASQDISNYLNWYQQKPGKAPKLLIYYTSRLHSGVPSRFSGSGSGTDFTFTISSLQPEDIATYFCQQGNTLPRTFGGGTKVEIK
notes: Humanized from #56 by CDR transplantation
Regarding B8, the “IC50 (read off the curve)” value in assay [1] was ~0.4 µg/mL. In the assay with human NGF (his tag) [3], this molecule returned a Kd of 0.0013 nM, a koff of 2.16e-06 s⁻¹ and a kon of 1.66e+06 M⁻¹ s⁻¹.

B9: humanized antibody AB5C4 (antibody, V domains shown)
VH: QVQLQESGPGLVKPSETLSLTCTVSGFSLTGYGWGWVRQPPGKGLEWIGSIWADGDTYYNPSLKSRVTISVDTSKNQFSLKLSSVTAADTAVYYCARDSYYYGYNFFDVWGQGTMVTVSS
VL: DIQMTQSPSSLSASVGDRVTITCQASQDISNYLNWYQQKPGKAPKLLIYYTSNLESGVPSRFSGSGSGTDFTFTISSLQPEDIATYYCQQGNTLPRTFGGGTKVEIK
notes: as for B8
For B9, in the assay with human NGF (his tag) [3], the affinity, expressed as Kd, was 0.0153 nM; the koff was 2.23e-05 s⁻¹; the kon was determined as 1.46e+06 M⁻¹ s⁻¹.

B10: humanized antibody AB5C3 (antibody, V domains shown)
VH: QVQLQESGPGLVKPSETLSLTCTVSGFSLTGYGWGWIRQPPGKGLEWIGSIWADGDTYYNPSLKSRVTISVDTSKNQFSLKLSSVTAADTAVYYCARDSYYYGYNFFDVWGQGTMVTVSS
VL: DIQMTQSPSSLSASVGDRVTITCQASQDISNYLNWYQQKPGKAPKLLIYYTSNLETGVPSRFSGSGSGTDFTFTISSLQPEDIATYYCQQGNTLPRTFGGGTKVEIK
notes: as for B8
In the assay with human NGF (his tag) [3], B10 gave a Kd of 0.00755 nM, a koff of 9.87e-06 s⁻¹ and a kon of 1.31e+06 M⁻¹ s⁻¹.

B11: humanized antibody AB5C5 (antibody, V domains shown)
VH: QVQLQESGPGLVKPSETLSLTCTVSGFSLTGYGWGWVRQPPGKGLEWLGSIWADGDTYYNPSLKSRVTISVDTSKNQFSLKLSSVTAADTAVYYCARDSYYYGYNFFDVWGQGTMVTVSS
VL: DIQMTQSPSSLSASVGDRVTITCQASQDISNYLNWYQQKPGKAPKLLIYYTSNLESGVPSRFSGSGSGTDFTFTISSLQPEDIATYFCQQGNTLPRTFGGGTKVEIK
notes: as for B8
B11: in the assay with human NGF (his tag) [3], the Kd turned out to be 0.0089 nM, the koff was 1.59e-05 s⁻¹ and the kon stood at 1.78e+06 M⁻¹ s⁻¹.

B12: mouse monoclonal antibody #2 (antibody, mouse IgG1, V domains shown)
VH: QVQLQQSGPELARPGASVKLSCKASGYTFTDYWMQWVKQRPGQGLEWIGTIYPGDGYTRYIQKFKGRATLTADKSSSTAYMQLNSLASEDSAVYYCARRAAYYTMDYWGQGTSVTVSS
VL: DIVMTQSHKFMSTSVGDRVSITCKASQDVNTAVAWYQQKPGQSPKLLIYWASTRHTGVPDRFTGSGSGTDYILTISSVQAEDLALYYCQQHYSSPWTFGGGTKLEIT
notes: also called Chen 2; antibody secreted by hybridoma A2
In the case of B12, the 50% effective concentration (EC50 (read off the curve)) in assay [4] is ~0.007 µg/mL. In the assay with human NGF (his tag) [2], binding was characterised by a dissociation constant (Kd) of 0.0159 nM, the koff is 2.92e-05 s⁻¹ and the kon was 1.83e+06 M⁻¹ s⁻¹.

B13: human mouse chimeric antibody AB5D1 (antibody, V domains shown)
VH: QVQLQQSGPELARPGASVKLSCKASGYTFTDYWMQWVKQRPGQGLEWIGTIYPGDGYTRYIQKFKGRATLTADKSSSTAYMQLNSLASEDSAVYYCARRAAYYTMDYWGQGTSVTVSS
VL: DIVMTQSHKFMSTSVGDRVSITCKASQDVNTAVAWYQQKPGQSPKLLIYWASTRHTGVPDRFTGSGSGTDYILTISSVQAEDLALYYCQQHYSSPWTFGGGTKLEIT
In the assay with human NGF (his tag) [3], B13 registered a Kd of 0.0106 nM, a koff of 1.55e-05 s⁻¹ and a kon of 1.46e+06 M⁻¹ s⁻¹.

B14: humanized antibody AB5D6 (antibody, V domains shown)
VH: QVQLQQSGPEVAKPGASVKLSCKASGYTFTDYWMQWVKQRPGQGLEWIGTIYPGDGYTRYIQKFKGRATLTADKSTSTAYMELNSLASEDSAVYYCARRAAYYTMDYWGQGTSVTVSS
VL: DIVMTQSHKFMSTSVGDRVTITCKASQDVNTAVAWYQQKPGQSPKLLIYWASTRHTGVPDRFSGSGSGTDYILTISSVQAEDLALYYCQQHYSSPWTFGGGTKLEIT
notes: Humanized from #2 by surface remodeling
For the molecule B14, in the assay with human NGF (his tag) [3], binding was put at a Kd of 0.0157 nM, the dissociation rate constant (koff) came out at 2.22e-05 s⁻¹ and the kon was found to be 1.41e+06 M⁻¹ s⁻¹.

Broadly, the Kd is the free concentration of one partner at which half of the binding sites on the other are occupied at equilibrium, for simple one-to-one binding. Low values mean higher affinity, high ones lower affinity. What is called koff is the rate constant with which the complex falls apart. A high value points to a short-lived complex. By kon is commonly meant a measure of how fast the partners come together. A low value points to slower complex formation. Usually EC50 (read off the curve) stands for the concentration at which the effect is half-maximal. Read a low EC50 (read off the curve) as an effect from little substance.
